From publication PMC10516938, “Conformational dynamics of cohesin/Scc2 loading complex are regulated by Smc3 acetylation and ATP binding” (Nature Communications, 2023)

Columns and labels:
Assay in all cases: cross-linking; in vivo BMOE cross-link of cysteine pairs in exponentially grown yeast cells (on ice, 6 min); Scc1-PK immunoprecipitated, western blot
Conditions in all cases: partners not purified
[1] = biological target: T1, Smc3 R1222C (S. cerevisiae, UniProt P47037 1-1230, R1222C)
T1 construct: Smc3, S. cerevisiae; source: S. cerevisiae W303, in vivo, whole-cell extract
T1 sequence (looked up): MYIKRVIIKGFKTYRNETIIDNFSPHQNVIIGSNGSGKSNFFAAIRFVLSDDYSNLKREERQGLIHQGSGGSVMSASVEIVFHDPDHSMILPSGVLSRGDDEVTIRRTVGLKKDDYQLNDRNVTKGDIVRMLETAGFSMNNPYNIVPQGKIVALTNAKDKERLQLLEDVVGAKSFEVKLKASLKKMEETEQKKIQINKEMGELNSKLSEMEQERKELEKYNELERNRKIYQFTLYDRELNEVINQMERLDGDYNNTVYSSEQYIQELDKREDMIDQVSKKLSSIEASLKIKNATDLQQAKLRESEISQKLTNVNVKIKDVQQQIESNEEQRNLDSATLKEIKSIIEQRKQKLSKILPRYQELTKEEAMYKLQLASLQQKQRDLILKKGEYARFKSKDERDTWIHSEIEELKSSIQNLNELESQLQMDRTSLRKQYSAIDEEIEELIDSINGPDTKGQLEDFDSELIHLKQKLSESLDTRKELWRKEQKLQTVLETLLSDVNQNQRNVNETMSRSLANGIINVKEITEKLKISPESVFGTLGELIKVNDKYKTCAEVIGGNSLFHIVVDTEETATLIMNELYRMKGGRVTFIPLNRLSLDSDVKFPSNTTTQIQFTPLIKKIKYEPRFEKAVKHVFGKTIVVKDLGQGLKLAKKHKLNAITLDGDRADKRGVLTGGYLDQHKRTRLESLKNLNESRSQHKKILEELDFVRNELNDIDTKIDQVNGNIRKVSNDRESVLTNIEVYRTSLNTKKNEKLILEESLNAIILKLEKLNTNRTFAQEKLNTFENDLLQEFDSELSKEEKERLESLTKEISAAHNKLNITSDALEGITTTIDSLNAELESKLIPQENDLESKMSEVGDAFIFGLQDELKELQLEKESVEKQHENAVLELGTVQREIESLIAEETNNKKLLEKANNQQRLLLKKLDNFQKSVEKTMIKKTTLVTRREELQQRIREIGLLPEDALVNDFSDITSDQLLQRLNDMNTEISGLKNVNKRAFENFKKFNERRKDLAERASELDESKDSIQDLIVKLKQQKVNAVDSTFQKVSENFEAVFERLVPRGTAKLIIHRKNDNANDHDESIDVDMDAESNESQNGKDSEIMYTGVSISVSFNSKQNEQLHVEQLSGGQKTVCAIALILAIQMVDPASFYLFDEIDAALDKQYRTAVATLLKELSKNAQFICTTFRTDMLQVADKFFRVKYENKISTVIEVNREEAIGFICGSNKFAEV

[2] = biological target: T2, Smc3^QQ R1222C (S. cerevisiae, UniProt P47037 1-1230, K112Q | K113Q | R1222C)
T2 construct: Smc3, S. cerevisiae; source: S. cerevisiae W303, in vivo, whole-cell extract
T2 sequence (looked up): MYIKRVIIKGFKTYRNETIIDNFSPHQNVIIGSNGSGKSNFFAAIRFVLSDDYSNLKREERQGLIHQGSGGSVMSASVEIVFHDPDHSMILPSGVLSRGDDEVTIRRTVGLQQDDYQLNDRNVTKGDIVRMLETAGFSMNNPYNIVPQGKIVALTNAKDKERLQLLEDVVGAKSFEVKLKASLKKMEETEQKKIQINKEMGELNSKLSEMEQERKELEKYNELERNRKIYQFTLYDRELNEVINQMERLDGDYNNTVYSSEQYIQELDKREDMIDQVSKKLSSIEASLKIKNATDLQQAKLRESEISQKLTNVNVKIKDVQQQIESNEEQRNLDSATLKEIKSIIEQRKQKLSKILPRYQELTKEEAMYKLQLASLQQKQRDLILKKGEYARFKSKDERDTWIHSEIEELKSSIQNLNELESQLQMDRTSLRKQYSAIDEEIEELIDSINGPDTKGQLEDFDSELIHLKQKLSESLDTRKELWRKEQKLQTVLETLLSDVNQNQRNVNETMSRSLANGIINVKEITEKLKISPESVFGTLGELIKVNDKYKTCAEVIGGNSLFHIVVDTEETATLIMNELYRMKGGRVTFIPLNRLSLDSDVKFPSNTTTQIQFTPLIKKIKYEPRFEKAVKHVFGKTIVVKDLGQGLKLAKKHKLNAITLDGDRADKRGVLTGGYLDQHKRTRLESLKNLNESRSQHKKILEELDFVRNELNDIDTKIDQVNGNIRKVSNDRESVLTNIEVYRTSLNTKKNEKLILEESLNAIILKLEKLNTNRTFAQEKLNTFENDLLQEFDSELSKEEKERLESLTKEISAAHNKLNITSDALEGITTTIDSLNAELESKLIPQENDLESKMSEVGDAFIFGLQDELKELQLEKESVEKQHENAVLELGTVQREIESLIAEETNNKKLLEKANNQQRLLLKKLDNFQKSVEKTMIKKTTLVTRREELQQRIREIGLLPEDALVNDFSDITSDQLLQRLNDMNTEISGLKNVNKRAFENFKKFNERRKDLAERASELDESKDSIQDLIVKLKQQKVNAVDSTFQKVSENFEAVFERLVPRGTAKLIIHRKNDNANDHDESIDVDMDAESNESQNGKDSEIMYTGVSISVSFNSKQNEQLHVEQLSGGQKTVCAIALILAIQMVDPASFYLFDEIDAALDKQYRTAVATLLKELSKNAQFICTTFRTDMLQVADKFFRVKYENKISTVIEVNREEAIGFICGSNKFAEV

[3] = biological target: T3, Smc3 K38I R1222C (S. cerevisiae, UniProt P47037 1-1230, K38I | R1222C)
T3 construct: source: S. cerevisiae W303, in vivo, whole-cell extract
T3 sequence (looked up): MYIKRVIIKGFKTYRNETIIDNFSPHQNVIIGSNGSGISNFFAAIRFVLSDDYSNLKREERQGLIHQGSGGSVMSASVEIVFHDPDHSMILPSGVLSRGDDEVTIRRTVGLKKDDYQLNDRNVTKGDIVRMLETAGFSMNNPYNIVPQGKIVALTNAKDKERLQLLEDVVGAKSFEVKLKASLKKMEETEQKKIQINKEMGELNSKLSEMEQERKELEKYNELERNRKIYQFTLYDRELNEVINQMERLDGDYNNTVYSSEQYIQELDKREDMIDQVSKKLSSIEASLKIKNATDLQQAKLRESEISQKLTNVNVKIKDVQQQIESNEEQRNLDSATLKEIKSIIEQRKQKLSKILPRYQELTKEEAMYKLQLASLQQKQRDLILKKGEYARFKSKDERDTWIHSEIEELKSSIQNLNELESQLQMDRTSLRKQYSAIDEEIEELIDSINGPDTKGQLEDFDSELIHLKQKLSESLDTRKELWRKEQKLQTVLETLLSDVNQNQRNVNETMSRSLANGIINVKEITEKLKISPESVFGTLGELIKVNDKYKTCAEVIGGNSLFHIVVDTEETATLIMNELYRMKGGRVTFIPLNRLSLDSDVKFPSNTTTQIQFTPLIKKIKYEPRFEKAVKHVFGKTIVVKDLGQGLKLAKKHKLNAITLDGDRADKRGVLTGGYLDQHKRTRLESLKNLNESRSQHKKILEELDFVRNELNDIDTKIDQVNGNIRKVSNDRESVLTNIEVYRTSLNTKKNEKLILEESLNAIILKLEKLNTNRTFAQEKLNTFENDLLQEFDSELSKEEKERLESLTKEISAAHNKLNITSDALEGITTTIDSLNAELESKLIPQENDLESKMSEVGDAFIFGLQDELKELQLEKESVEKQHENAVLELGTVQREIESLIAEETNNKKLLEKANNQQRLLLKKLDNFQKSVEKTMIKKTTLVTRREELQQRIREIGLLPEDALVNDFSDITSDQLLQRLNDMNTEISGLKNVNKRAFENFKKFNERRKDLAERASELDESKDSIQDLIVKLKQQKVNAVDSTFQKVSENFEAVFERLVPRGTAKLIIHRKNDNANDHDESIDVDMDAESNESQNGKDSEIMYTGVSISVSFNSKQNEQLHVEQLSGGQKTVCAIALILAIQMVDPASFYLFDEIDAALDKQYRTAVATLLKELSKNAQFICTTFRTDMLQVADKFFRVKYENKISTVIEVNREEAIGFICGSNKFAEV

crosslinking efficiency [1]: ~23%
crosslinking efficiency [2]: 24%
crosslinking efficiency [3]: 5%
B1: Smc1 N1192C (natural protein, S. cerevisiae, UniProt P32908 1-1225, looked up)
chain: MGRLVGLELSNFKSYRGVTKVGFGESNFTSIIGPNGSGKSNMMDAISFVLGVRSNHLRSNILKDLIYRGVLNDENSDDYDNEGAASSNPQSAYVKAFYQKGNKLVELMRIISRNGDTSYKIDGKTVSYKDYSIFLENENILIKAKNFLVFQGDVEQIAAQSPVELSRMFEEVSGSIQYKKEYEELKEKIEKLSKSATESIKNRRRIHGELKTYKEGINKNEEYRKQLDKKNELQKFQALWQLYHLEQQKEELTDKLSALNSEISSLKGKINNEMKSLQRSKSSFVKESAVISKQKSKLDYIFKDKEKLVSDLRLIKVPQQAAGKRISHIEKRIESLQKDLQRQKTYVERFETQLKVVTRSKEAFEEEIKQSARNYDKFKLNENDLKTYNCLHEKYLTEGGSILEEKIAVLNNDKREIQEELERFNKRADISKRRITEELSITGEKLDTQLNDLRVSLNEKNALHTERLHELKKLQSDIESANNQEYDLNFKLRETLVKIDDLSANQRETMKERKLRENIAMLKRFFPGVKGLVHDLCHPKKEKYGLAVSTILGKNFDSVIVENLTVAQECIAFLKKQRAGTASFIPLDTIETELPTLSLPDSQDYILSINAIDYEPEYEKAMQYVCGDSIICNTLNIAKDLKWKKGIRGKLVTIEGALIHKAGLMTGGISGDANNRWDKEEYQSLMSLKDKLLIQIDELSNGQRSNSIRAREVENSVSLLNSDIANLRTQVTQQKRSLDENRLEIKYHNDLIEKEIQPKITELKKKLDDLENTKDNLVKEKEALQNNIFKEFTSKIGFTIKEYENHSGELMRQQSKELQQLQKQILTVENKLQFETDRLSTTQRRYEKAQKDLENAQVEMKSLEEQEYAIEMKIGSIESKLEEHKNHLDELQKKFVTKQSELNSSEDILEDMNSNLQVLKRERDGIKEDIEKFDLERVTALKNCKISNINIPISSETTIDDLPISSTDNEAITISNSIDINYKGLPKKYKENNTDSARKELEQKIHEVEEILNELQPNARALERYDEAEGRFEVINNETEQLKAEEKKILNQFLKIKKKRKELFEKTFDYVSDHLDAIYRELTKNPNSNVELAGGNASLTIEDEDEPFNAGIKYHATPPLKRFKDMEYLSGGEKTVAALALLFAINSYQPSPFFVLDEVDAALDITNVQRIAAYIRRHRNPDLQFIVISLKCTMFEKSDALVGVYRQQQENSSKIITLDLSNYAE
notes: Smc1, S. cerevisiae; source: S. cerevisiae W303, in vivo, whole-cell extract
